Reference: patent US20140127212A1 (AstraZeneca / MedImmune, published 2014)
Positions count from the first letter of the chain named.

T1: cynomolgus IgE Cε3-Cε4 domain, C-terminally tagged with FLAG His10 (cynomolgus monkey)
T1 construct: also called Cynomolgus Ce3-4 FLAG His10
T1 chain: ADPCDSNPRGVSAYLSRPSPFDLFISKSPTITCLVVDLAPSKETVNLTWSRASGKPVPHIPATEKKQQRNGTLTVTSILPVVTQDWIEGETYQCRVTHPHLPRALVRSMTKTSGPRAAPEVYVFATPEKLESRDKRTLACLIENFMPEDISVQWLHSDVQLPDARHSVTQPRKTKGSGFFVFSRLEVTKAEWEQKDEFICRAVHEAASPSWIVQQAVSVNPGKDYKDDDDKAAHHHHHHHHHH

B1: Antibody 1 IgG (antibody, V domains shown)
VH: QVQLVQSGAEVKKPGATVKLSCKVYGYIFTDYNIYWVRQAPGKGLEWMGLIDPDNGETFYAEKFQGRATMTADTSSDRAYMELTSLTFEDTATYYCATVLHRRLKGGYDYWGRGTLVTVSS
VL: QSVLTQPPSVSGAPGQRVTISCTGSSSNIGAGYDVHWYQQLPGTAPKLLIYDNFNRPSGVPDRFSGSKSGTSASLAIIGLQTEDEADYYCQSYDSSLSGSLFGTGTKLTVL
notes: Whole human IgG (section 1.4, IgG1); also called parent antibody
B2: Antibody 2 scFv (scFv, V domains shown)
VH: B1 VH with L100S, H101L, R103S, L104A
VL: B1 VL
notes: Purified scFv
B3: Antibody 7 scFv (scFv, V domains shown)
VH: B1 VH with L100T, H101L, R102K, R103S, L104A
VL: B1 VL with S96D, L97R, S98R, G99N, L101P
notes: Purified scFv
B4: Antibody 22 scFv (scFv, V domains shown)
VH: B1 VH with L100T, H101L, R102K, R103S, L104A
VL: B1 VL with L97G, S98G, G99Y, S100A, L101P
notes: Purified scFv
B5: Antibody 3 scFv (scFv, V domains shown)
VH: B1 VH with L100M, H101G, R102K, R103W, L104I
VL: B1 VL with S96T, L97F, S98N, G99H, S100A, L101P
notes: Purified scFv
B6: Antibody 5 scFv (scFv, V domains shown)
VH: B1 VH with L100M, H101G, R102K, R103W, L104I
VL: B1 VL with S96T, L97K, S98H, G99T, L101P
notes: Purified scFv
B7: Antibody 14 scFv (scFv, V domains shown)
VH: B1 VH with L100M, H101G, R102K, R103W, L104I
VL: B1 VL with S96H, L97H, S98R, G99H, L101P
notes: Purified scFv
B8: Antibody 12 scFv (scFv, V domains shown)
VH: B1 VH with L100M, H101G, R102K, R103W, L104I
VL: B1 VL with L97I, S98D, G99H, L101P
notes: Purified scFv
B9: Antibody 28 scFv (scFv, V domains shown, not shown: small tags and cut ends)
VH: B1 VH with L100M, H101G, R102K, R103W, L104I
VL: B1 VL with L97S, S98L, G99H, L101P
notes: Purified scFv
B10: Antibody 18 scFv (scFv, V domains shown)
VH: B1 VH with H101L, R103S, L104A
VL: B1 VL with S96H, S98Q, G99L, L101P
notes: Purified scFv
B11: Antibody 4 scFv (scFv, V domains shown)
VH: B1 VH with L100M, H101G, R102K, R103W, L104I
VL: B1 VL with S96R, L97G, S98G, G99H, L101P
notes: Purified scFv
B12: Antibody 13 scFv (scFv, V domains shown)
VH: B1 VH with L100M, H101G, R102K, R103W, L104I
VL: B1 VL with S96N, L97I, S98L, G99Y, L101P
notes: Purified scFv
B13: Antibody 23 scFv (scFv, V domains shown, not shown: small tags and cut ends)
VH: B1 VH with L100M, H101G, R102K, R103W, L104I
VL: B1 VL with S96H, L97H, S98L, G99Y, L101S
notes: Purified scFv
B14: Antibody 6 scFv (scFv, V domains shown)
VH: B1 VH with L100M, H101G, R102K, R103W, L104I
VL: B1 VL with S96T, L97M, S98R, G99H, S100G, L101P
notes: Purified scFv
B15: Antibody 21 scFv (scFv, V domains shown)
VH: B1 VH with L100T, H101L, R102K, R103S, L104A
VL: B1 VL with L97S, S98Q, G99L, L101P
notes: Purified scFv
B16: Antibody 11 scFv (scFv, V domains shown)
VH: B1 VH with L100M, H101G, R102K, R103W, L104I
VL: B1 VL with S96P, L97T, S98L, G99T, L101P
notes: Purified scFv
B17: Antibody 27 scFv (scFv, V domains shown, not shown: small tags and cut ends)
VH: B1 VH with L100S, H101L, R102K, R103E, L104A
VL: B1 VL with S96P, L97T, S98Q, G99T, L101P
notes: Purified scFv
B18: Antibody 10 scFv (scFv, V domains shown)
VH: B1 VH with L100S, H101L, R103A, L104A
VL: B1 VL with S96E, L97Q, S98E, G99L, S100A, L101P
notes: Purified scFv
B19: Antibody 16 scFv (scFv, V domains shown)
VH: B1 VH with L100S, H101L, R102K, R103S, L104A
VL: B1 VL with S96R, L97H, S98H, G99H, S100A, L101P
notes: Purified scFv
B20: Antibody 24 scFv (scFv, V domains shown, not shown: small tags and cut ends)
VH: B1 VH with L100T, H101L, R102K, R103T, L104A
VL: B1 VL with S96R, L97N, S98G, G99Y, S100G, L101G
notes: Purified scFv
B21: Antibody 25 scFv (scFv, V domains shown, not shown: small tags and cut ends)
VH: B1 VH with L100T, H101L, R102K, R103S, L104A
VL: B1 VL with S96N, L97H, S98K, G99T, L101P
notes: Purified scFv
B22: Antibody 26 scFv (scFv, V domains shown, not shown: small tags and cut ends)
VH: B1 VH with L100S, H101L, R102K, R103E, L104A
VL: B1 VL with S96A, L97S, S98R, G99H, S100A, L101P
notes: Purified scFv
B23: Antibody 17 scFv (scFv, V domains shown)
VH: B1 VH with L100T, H101L, R102K, R103S, L104A
VL: B1 VL with S96Q, L97S, G99T, L101P
notes: Purified scFv
B24: Antibody 9 scFv (scFv, V domains shown)
VH: B1 VH with L100T, H101L, R103S, L104A
VL: B1 VL with S96P, L97S, G99T, L101P
notes: Purified scFv
B25: Antibody 8 scFv (scFv, V domains shown)
VH: B1 VH with H101G, R103W, L104I
VL: B1 VL with S96P, L97T, S98H, G99T, L101P
notes: Purified scFv
B26: Antibody 15 scFv (scFv, V domains shown)
VH: B1 VH with L100T, H101L, R102K, R103T, L104A
VL: B1 VL with S96H, L97K, S98G, G99Y, S100G, L101G
notes: Purified scFv
B27: Antibody 6 IgG (antibody, V domains shown)
VH: B1 VH with L100M, H101G, R102K, R103W, L104I
VL: B1 VL with S96T, L97M, S98R, G99H, S100G, L101P
notes: Whole human IgG (section 1.4, IgG1)
B28: Antibody 19 IgG (antibody, V domains shown)
VH: B1 VH with L100M, H101G, R102K, R103W, L104I
VL: B1 VL with S96T, G99H, L101P
notes: as for B27
B29: Antibody 11 IgG (antibody, V domains shown)
VH: B1 VH with L100M, H101G, R102K, R103W, L104I
VL: B1 VL with S96P, L97T, S98L, G99T, L101P
notes: as for B27
B30: Antibody 4 IgG (antibody, V domains shown)
VH: B1 VH with L100M, H101G, R102K, R103W, L104I
VL: B1 VL with S96R, L97G, S98G, G99H, L101P
notes: as for B27
B31: Antibody 13 IgG (antibody, V domains shown)
VH: B1 VH with L100M, H101G, R102K, R103W, L104I
VL: B1 VL with S96N, L97I, S98L, G99Y, L101P
notes: as for B27
B32: Antibody 20 IgG (antibody, V domains shown)
VH: B1 VH with L100M, H101G, R102K, R103W, L104I
VL: B1 VL with L97T, G99S, L101P
notes: as for B27
B33: Antibody 28 IgG (antibody, V domains shown)
VH: B1 VH with L100M, H101G, R102K, R103W, L104I
VL: B1 VL with L97S, S98L, G99H, L101P
notes: as for B27
B34: Antibody 12 IgG (antibody, V domains shown)
VH: B1 VH with L100M, H101G, R102K, R103W, L104I
VL: B1 VL with L97I, S98D, G99H, L101P
notes: as for B27
B35: Antibody 16 IgG (antibody, V domains shown)
VH: B1 VH with L100S, H101L, R102K, R103S, L104A
VL: B1 VL with S96R, L97H, S98H, G99H, S100A, L101P
notes: as for B27
B36: Antibody 23 IgG (antibody, V domains shown)
VH: B1 VH with L100M, H101G, R102K, R103W, L104I
VL: B1 VL with S96H, L97H, S98L, G99Y, L101S
notes: as for B27
B37: Antibody 5 IgG (antibody, V domains shown)
VH: B1 VH with L100M, H101G, R102K, R103W, L104I
VL: B1 VL with S96T, L97K, S98H, G99T, L101P
notes: as for B27
B38: Antibody 8 IgG (antibody, V domains shown)
VH: B1 VH with H101G, R103W, L104I
VL: B1 VL with S96P, L97T, S98H, G99T, L101P
notes: as for B27
B39: Antibody 18 IgG (antibody, V domains shown)
VH: B1 VH with H101L, R103S, L104A
VL: B1 VL with S96H, S98Q, G99L, L101P

What follows are binders tested against human IgE (preparation not stated, or 'Calbiochem or U266-derived') (human, UniProt P01854-1 1-428) (assay: cell-based or functional assay).
human IgE (preparation not stated, or 'Calbiochem or U266-derived'), sequence (P01854 other isoform, or with tags, fused parts or gaps): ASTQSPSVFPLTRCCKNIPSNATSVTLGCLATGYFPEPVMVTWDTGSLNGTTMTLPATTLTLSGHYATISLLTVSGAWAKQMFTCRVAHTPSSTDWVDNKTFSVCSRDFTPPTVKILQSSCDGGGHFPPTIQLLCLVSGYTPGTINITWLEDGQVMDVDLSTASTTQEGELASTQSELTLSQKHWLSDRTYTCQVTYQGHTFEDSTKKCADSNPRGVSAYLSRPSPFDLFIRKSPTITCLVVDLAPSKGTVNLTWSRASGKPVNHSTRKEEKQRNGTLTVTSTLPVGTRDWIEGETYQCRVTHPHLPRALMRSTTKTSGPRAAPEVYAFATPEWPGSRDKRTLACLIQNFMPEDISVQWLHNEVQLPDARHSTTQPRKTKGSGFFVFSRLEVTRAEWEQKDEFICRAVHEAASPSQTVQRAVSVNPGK

IgE induced calcium signalling of RBL-ER51 cells, IC50	Binder
34 nM	B1

What follows are binders tested against T2, cynomolgus IgE (recombinant chimaeric D12 variable region and cynomolgus IgE constant region) (cynomolgus monkey (constant region); …) (assay: HTRF competition; scFv titrated vs Eu-cryptate cynomolgus IgE binding to human FcεRI-Fc; geomean).
T2 construct: The entries may hold a leader peptide; also called cyno IgE; cynomolgus monkey IgE
T2 sequence (heavy, as listed by the source limits assumed, chain 1 of 2): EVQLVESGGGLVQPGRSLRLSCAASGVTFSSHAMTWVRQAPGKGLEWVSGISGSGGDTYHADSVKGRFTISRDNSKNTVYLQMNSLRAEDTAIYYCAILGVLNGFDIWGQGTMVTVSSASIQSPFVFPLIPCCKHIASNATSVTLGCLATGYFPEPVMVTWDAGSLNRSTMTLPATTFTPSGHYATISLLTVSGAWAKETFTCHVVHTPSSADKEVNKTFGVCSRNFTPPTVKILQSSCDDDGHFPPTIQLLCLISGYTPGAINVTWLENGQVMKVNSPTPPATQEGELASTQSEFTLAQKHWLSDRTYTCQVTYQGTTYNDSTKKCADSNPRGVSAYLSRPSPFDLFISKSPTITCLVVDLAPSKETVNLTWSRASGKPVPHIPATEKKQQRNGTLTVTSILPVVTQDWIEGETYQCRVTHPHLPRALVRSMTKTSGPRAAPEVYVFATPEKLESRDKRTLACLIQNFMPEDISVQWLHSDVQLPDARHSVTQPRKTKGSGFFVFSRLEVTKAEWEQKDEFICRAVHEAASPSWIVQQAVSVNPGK
T2 sequence (light, as listed by the source limits assumed, chain 2 of 2): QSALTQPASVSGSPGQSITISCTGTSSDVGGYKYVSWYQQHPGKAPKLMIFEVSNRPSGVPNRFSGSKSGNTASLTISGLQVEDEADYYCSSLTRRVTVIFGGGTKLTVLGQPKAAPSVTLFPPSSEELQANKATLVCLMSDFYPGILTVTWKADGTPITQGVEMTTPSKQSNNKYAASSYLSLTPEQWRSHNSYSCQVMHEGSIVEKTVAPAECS

IC50	Binder
317 nM	B2
186 nM	B3
68 nM	B4
18 nM	B5
6 nM	B6
15 nM	B7
7 nM	B8
7 nM	B9
110 nM	B10
5 nM	B11
7 nM	B12
6 nM	B13
11 nM	B14
65 nM	B15
7 nM	B16
117 nM	B17
116 nM	B18
63 nM	B19
111 nM	B20
86 nM	B21
121 nM	B22
109 nM	B23
132 nM	B24
12 nM	B25
172 nM	B26

What follows are binders tested against T2, cynomolgus IgE (recombinant chimaeric …) (assay: SPR BIAcore; IgG captured on protein G', IgE analyte, bivalent analyte fit; geomean).

Kd	Binder
3.7 nM	B27
7.9 nM	B28
9.3 nM	B29
8 nM	B30
9.9 nM	B31
10.5 nM	B32
7.2 nM	B33
230 nM	B34
62 nM	B35
4.3 nM	B36
7.9 nM	B37
6.3 nM	B38

Each binder was assayed against MOv18 IgE (assay: cell-based or functional assay).

Binder	IC50 (read off the curve), IgE/FcεRI-mediated cytotoxicity
B29	~0.1 nM

The binders below were run against T2, cynomolgus IgE (recombinant chimaeric …) (assay: cell-based or functional assay).

RBL-ER51 calcium signalling IC50 (nM), Cynomolgus IgE, geomean	Binder
2.97 nM	B39
0.168 nM	B27
0.111 nM	B28
0.153 nM	B29
0.151 nM	B30
0.244 nM	B31
0.31 nM	B32
0.253 nM	B33
0.334 nM	B34
4.38 nM	B35
0.523 nM	B36
0.181 nM	B37
0.188 nM	B38

Molecular target: T1, cynomolgus IgE Cε3-Cε4 domain, …
Assay: DELFIA epitope competition; competitor vs biotinylated IgE on immobilised IgG

binding result	Binder
binds	B1
